# Publication PMC3782427, “The N-Terminal Region of the Human Autophagy Protein ATG16L1 Contains a Domain That Folds into a Helical Structure Consistent with Formation of a Coiled-Coil” (PLoS ONE, 2013)
# Target: the molecule itself
# Experiment: native gel or EMSA; Native-PAGE, Novex 4-20% Tris-glycine native gel, 1 ug protein a lane, before and after freeze/thawing at -80 C
protein,measurement,value
"human ATG16L1 coiled-coil domain construct 3 (CCD3-FLAG-6His), residues M126-A207 (domain or fragment, UniProt Q676U5-1 126-207, looked up, human ATG16L1 isoform 1 (NP_110430.5, full length M1-Y607), coiled-coil domain, residues M126-A207; amplified from pCMV-FLAG-ATG16L1; Expressed as GST-CCD3-FLAG-6His with a TEV site between GST and the insert; Calculated molecular weight printed as 11.3 kDa; also called CCD3FH; minimal coiled-coil domain; source: E. coli Rosetta 2, purified (glutathione sepharose, on column TEV cleavage, HIC); …) MNEAKIAECLQTISDLETECLDLRTKLCDLERANQTLKDEYDALQITFTALEGKLRKTTEENQELVTRWMAEKAQEANRLNA",stoichiometry N,2
